Measured values reported in paper PMC7494424 (Nature methods, 2019).

B1: P. falciparum glutamine synthetase (enzyme, UniProt C0H551 1-543, looked up)
chain: MKSVSFSNNAELYEYIKDKKNDVEIVACIITNLLGTYFKCFFYVKEITLNKLESGFSFDASSIKLCSDTEVSDFFIKVDHSTCYLEECDGKNILNIMCDIKRYNGFDYYKCPRTILKKTCEFVKNEGIADKVCIGNELEFFIFDKVNYSLDEYNTYLKVYDRESFSCKNDLSSIYGNHVVNKVEPHKDHFNNPNNEYLINDDSKKVKKKSGYFTTDPYDTSNIIKLRICRALNDMNINVQRYHHEVSTSQHEISLKYFDALTNADFLLITKQIIKTTVSSFNRTATFMPKPLVNDNGNGLHCNISLWKNNKNIFYHNDPSTFFLSKESFYFMYGIVKHAKALQAFCNATMNSYKRLVPGFETCQKLFYSFGSRSAVIRLSLINYSNPSEKRIEFRLPDCANSPHLVMAAIILAGYDGIKSKEQPLVPFESKDNHFYISSIFSKYVQHPENFNILTHALEGYESLHTINESPEFKNFFKCEEPQGISFSLVESLDALEKDHAFLTVNNIFTEEMIQEYIKFKREEIDAYNKYVNAYDYHLYYEC
B2: P. falciparum M18 aspartyl aminopeptidase (enzyme, UniProt Q8I2J3 1-570, looked up)
chain: MDKKAREYAQDALKFIQRSGSNFLACKNLKERLENNGFINLSEGETWNLNKNEGYVLCKENRNICGFFVGKNFNIDTGSILISIGHIDSCALKISPNNNVIKKKIHQINVECYGSGLWHTWFDRSLGLSGQVLYKKGNKLVEKLIQINKSVLFLPSLAIHLQNRTRYDFSVKINYENHIKPIISTTLFNQLNKCKRNNVHHDTILTTDTKFSHKENSQNKRDDQMCHSFNDKDVSNHNLDKNTIEHLTNQQNEEKNKHTKDNPNSKDIVEHINTDNSYPLLYLLSKELNCKEEDILDFELCLMDTQEPCFTGVYEEFIEGARFDNLLGSFCVFEGFIELVNSIKNHTSNENTNHTNNITNDINDNIHNNLYISIGYDHEEIGSLSEVGARSYCTKNFIDRIISSVFKKEIHEKNLSVQEIYGNLVNRSFILNVDMAHCSHPNYPETVQDNHQLFFHEGIAIKYNTNKNYVTSPLHASLIKRTFELYYNKYKQQIKYQNFMVKNDTPCGSTVGSMVAANLSMPGIDIGIPQLAMHSIREIAAVHDVFFLIKGVFAFYTYYNQVLSTCVHDK

Target: the molecule itself
Assay: cryo-EM structure

Protein | stoichiometry N
B1 | 12
B2 | 12
